Experimental data reported in the supplement of paper PMC9112550, “Optimization of the antimicrobial peptide Bac7 by deep mutational scanning” (BMC Biology, 2022).

What follows are sequences tested on Escherichia coli TOP10 (assay: shrunken log2 fold change of peptide-encoding DNA abundance (4.5 h post-induction vs induction); higher = less antimicrobial activity (less host growth inhibition)). Conditions: time post-induction: 4.5 h; library: site-saturation at positions 5, 18, 19, 20.
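Note: peptides expressed intracellularly from a pBAD plasmid library in pooled LB shake-flask culture, induced with 0.3% L-arabinose, DNA abundance read by NGS, three biological replicates, DESeq2 with apeglm shrinkage.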

Sequence | shrunken log2 fold change
RRIRVRPPRLPRPRPRPNWLPRP | -0.105
RRIRYRPPRLPRPRPRPGQLPRP | -0.284
RRIRVRPPRLPRPRPRPTVSPRP | -0.131
RRIRRRPPRLPRPRPRPEPWPRP | 0.538
RRIRRRPPRLPRPRPRPLVEPRP | 0.116
RRIRRRPPRLPRPRPRPDSCPRP | -0.00351
RRIRARPPRLPRPRPRPIMWPRP | 0.217
RRIRFRPPRLPRPRPRPMGLPRP | -0.00847
RRIRIRPPRLPRPRPRPAYAPRP | -0.197
RRIRVRPPRLPRPRPRPYPMPRP | -0.299
RRIRFRPPRLPRPRPRPFHTPRP | -0.561
RRIRDRPPRLPRPRPRPGKDPRP | -0.0503
RRIRNRPPRLPRPRPRPQYQPRP | -0.317
RRIRQRPPRLPRPRPRPGQDPRP | 0.102
RRIRQRPPRLPRPRPRPTVMPRP | 0.0964
RRIRLRPPRLPRPRPRPLLVPRP | -0.12
RRIRNRPPRLPRPRPRPKDKPRP | -0.112
RRIRSRPPRLPRPRPRPPMGPRP | -0.0142
RRIRKRPPRLPRPRPRPMLTPRP | 0.189
RRIRDRPPRLPRPRPRPYKRPRP | 0.000522
RRIRWRPPRLPRPRPRPPQNPRP | 0.91
RRIRWRPPRLPRPRPRPGYKPRP | -0.255
RRIRGRPPRLPRPRPRPWEVPRP | 0.0273
RRIRTRPPRLPRPRPRPCLVPRP | -0.175
RRIRWRPPRLPRPRPRPSWSPRP | 0.862

Sequence | shrunken log2 fold change
RRIRERPPRLPRPRPRPWDRPRP | -0.146
RRIRFRPPRLPRPRPRPFLTPRP | -0.172
RRIRPRPPRLPRPRPRPKEMPRP | -0.106
RRIRDRPPRLPRPRPRPWWVPRP | -0.335
RRIRDRPPRLPRPRPRPFWSPRP | 0.000201
RRIRERPPRLPRPRPRPNFEPRP | -0.188
RRIRIRPPRLPRPRPRPEFMPRP | -0.25
RRIRCRPPRLPRPRPRPLPHPRP | 0.102
RRIRRRPPRLPRPRPRPNRPPRP | 0.198
RRIRYRPPRLPRPRPRPQPLPRP | -0.00898
RRIRYRPPRLPRPRPRPNIEPRP | -0.801
RRIRDRPPRLPRPRPRPCVCPRP | -0.0348
RRIRHRPPRLPRPRPRPQLQPRP | 0.0457
RRIRDRPPRLPRPRPRPFWDPRP | 0.148
RRIRVRPPRLPRPRPRPIAVPRP | 0.0926
RRIRPRPPRLPRPRPRPYHYPRP | -0.84
RRIRIRPPRLPRPRPRPVWVPRP | 0.107
RRIRVRPPRLPRPRPRPLRPPRP | 0.97
RRIRYRPPRLPRPRPRPTDLPRP | -0.396
RRIRGRPPRLPRPRPRPEVKPRP | 0.0386
RRIRMRPPRLPRPRPRPKVGPRP | 1.27
RRIRKRPPRLPRPRPRPVRGPRP | 0.732
RRIRVRPPRLPRPRPRPGTIPRP | -0.0277
RRIRHRPPRLPRPRPRPFPHPRP | 0.188
RRIRPRPPRLPRPRPRPLLQPRP | 0.16
